Experiment [1] concerns the target T1, Bee Hyaluronidase (bee).
T1 chain: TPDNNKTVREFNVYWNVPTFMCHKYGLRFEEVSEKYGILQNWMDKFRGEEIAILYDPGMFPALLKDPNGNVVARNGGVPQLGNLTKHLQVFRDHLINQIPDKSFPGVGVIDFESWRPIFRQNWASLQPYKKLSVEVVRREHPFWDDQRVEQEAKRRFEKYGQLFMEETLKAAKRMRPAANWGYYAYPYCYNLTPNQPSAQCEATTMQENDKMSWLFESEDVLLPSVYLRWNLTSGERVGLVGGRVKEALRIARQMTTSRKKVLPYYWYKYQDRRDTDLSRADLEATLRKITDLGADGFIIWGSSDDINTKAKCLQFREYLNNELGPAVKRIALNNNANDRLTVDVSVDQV
The experiment can be described thus: SPR; XPR repeat 1.

In experiment [2] the target is T1, Bee Hyaluronidase. The experiment can be described thus: SPR; XPR repeat 2.
Experiment [3] deals with T1, Bee Hyaluronidase. As to the kind of experiment: SPR; XPR repeat 2. A general note: In SPR one partner is held on a chip, and binding of the other changes the refractive index at the surface.
The target of experiment [4] is T1, Bee Hyaluronidase. As to the kind of experiment: SPR.
Experiment [5] concerns the target T1, Bee Hyaluronidase. As to the kind of experiment: SPR.

Where “and” joins values, the source holds several entries; their conditions need not be identical. Identical values can stand only once.

B1: L14_7 (antibody, V domains shown)
VH: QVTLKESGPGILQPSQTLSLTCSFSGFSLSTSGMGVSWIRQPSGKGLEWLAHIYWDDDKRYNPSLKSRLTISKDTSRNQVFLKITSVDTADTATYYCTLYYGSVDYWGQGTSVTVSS
VL: DIQMTQSPASLSASVGETVTITCRSSRDIKDYITWYQQKQGKSPQLLVYNAKTLAEGVPSRFSGSGSGTEFSLKISSLQPEDFGNYYCQHHYGTRTFGGGTRLEIK
On to B1, for which the koff – broadly, the first-order rate constant of dissociation – in experiment [1] is 0.000115 s⁻¹; in experiment [2], 0.000133 s⁻¹. In addition, the Kd (in general, the concentration at which binding is half-saturated) in experiment [3] is 0.962 nM.

B2: WT 2J88 antibody (antibody, V domains shown)
VH: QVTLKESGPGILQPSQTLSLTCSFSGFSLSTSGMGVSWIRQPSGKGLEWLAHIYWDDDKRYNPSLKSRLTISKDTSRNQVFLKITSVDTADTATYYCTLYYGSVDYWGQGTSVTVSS
VL: DIQMTQSPASLSASVGETVTITCRASENIYSYLTWYQQKQGKSPQLLVYNAKTLAEGVPSRFSGSGSGTQFSLKISSLQPEDFGNYYCQHHYGTRTFGGGTRLEIK
For B2, in experiment [4], the koff is 0.00111 s⁻¹ and 0.0013 s⁻¹ and 0.00116 s⁻¹. In addition, the Kd in experiment [5] was 10.4 nM and 15.6 nM.
